Test results from the supplement of paper PMC9116672.
± gives the standard deviation of the averaged measurements or the uncertainty stated by the source.

How the values were obtained:
[1] = duplex formation entropy ΔS (Van't Hoff fit of HRM Tm); higher = smaller entropy loss on duplex formation; settings: temperature for dG: 50 °C, NaCl: 500 mM (unadjusted)
Protocol: (§1)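 Duplex of the listed DNA strand with its complement, in 1x NNE buffer (500 mM NaCl, pH 7.0) with 1x EvaGreen. ΔH and ΔS come from a Van't Hoff linear fit of 1/Tm against ln(CT/4) over 1-20 uM, using HRM Tm values.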

[2] = duplex formation free energy ΔG50 (Van't Hoff fit of HRM Tm); higher = less stable duplex; settings: temperature for dG: 50 °C, NaCl: 500 mM (unadjusted)
Protocol: as §1

[3] = duplex melting temperature (HRM, EvaGreen); higher = more stable duplex
Protocol: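 Listed DNA strand annealed 1:1 with its complementary strand (95 °C 5 min, 0.1 °C/s to 20 °C). Melted in 1x NNE buffer (500 mM NaCl, 10 mM Na2HPO4, 1 mM EDTA, pH 7.0) with 1x EvaGreen on a LightCycler96 (37 to 97 °C, 0.1 °C/s). Tm is the peak of -dF/dT at the stated total duplex concentration; 4 replicates are averaged. PS oligos are non-stereospecific (Rp/Sp mixtures).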

[4] = duplex formation enthalpy ΔH (Van't Hoff fit of HRM Tm); higher = less exothermic duplex formation; settings: temperature for dG: 50 °C, NaCl: 500 mM (unadjusted)
Protocol: as §1

[5] = backbone: PO-PO (both strands phosphodiester DNA)
[6] = backbone: PS-PO (listed strand fully phosphorothioate, complement phosphodiester)
[7] = backbone: PS-PS (both strands fully phosphorothioate)
[8] = duplex concentration 1 µM, backbone: PO-PO (both strands phosphodiester DNA)
[9] = duplex concentration 1 µM, backbone: PS-PS (both strands fully phosphorothioate)
[10] = duplex concentration 2.5 µM, backbone: PO-PO (both strands phosphodiester DNA)
[11] = duplex concentration 2.5 µM, backbone: PS-PO (listed strand fully phosphorothioate, complement phosphodiester)
[12] = duplex concentration 2.5 µM, backbone: PS-PS (both strands fully phosphorothioate)
[13] = duplex concentration 5 µM, backbone: PO-PO (both strands phosphodiester DNA)
[14] = duplex concentration 5 µM, backbone: PS-PO (listed strand fully phosphorothioate, complement phosphodiester)
[15] = duplex concentration 5 µM, backbone: PS-PS (both strands fully phosphorothioate)
[16] = duplex concentration 7.5 µM, backbone: PO-PO (both strands phosphodiester DNA)
[17] = duplex concentration 7.5 µM, backbone: PS-PO (listed strand fully phosphorothioate, complement phosphodiester)
[18] = duplex concentration 7.5 µM, backbone: PS-PS (both strands fully phosphorothioate)
[19] = duplex concentration 10 µM, backbone: PO-PO (both strands phosphodiester DNA)
[20] = duplex concentration 10 µM, backbone: PS-PO (listed strand fully phosphorothioate, complement phosphodiester)
[21] = duplex concentration 10 µM, backbone: PS-PS (both strands fully phosphorothioate)
[22] = duplex concentration 15 µM, backbone: PO-PO (both strands phosphodiester DNA)
[23] = duplex concentration 15 µM, backbone: PS-PO (listed strand fully phosphorothioate, complement phosphodiester)
[24] = duplex concentration 20 µM, backbone: PS-PO (listed strand fully phosphorothioate, complement phosphodiester)
[25] = duplex concentration 1 µM, backbone: PS-PO (listed strand fully phosphorothioate, complement phosphodiester)
[26] = duplex concentration 15 µM, backbone: PS-PS (both strands fully phosphorothioate)
[27] = duplex concentration 20 µM, backbone: PO-PO (both strands phosphodiester DNA)
[28] = duplex concentration 20 µM, backbone: PS-PS (both strands fully phosphorothioate)

Sequence	duplex formation entropy ΔS [1, 5]	duplex formation entropy ΔS [1, 6]	duplex formation entropy ΔS [1, 7]	duplex formation free energy ΔG50 [2, 5]	duplex formation free energy ΔG50 [2, 6]	duplex formation free energy ΔG50 [2, 7]	duplex melting temperature [3, 8]	duplex melting temperature [3, 9]	duplex melting temperature [3, 10]	duplex melting temperature [3, 11]	duplex melting temperature [3, 12]	duplex melting temperature [3, 13]	duplex melting temperature [3, 14]	duplex melting temperature [3, 15]	duplex melting temperature [3, 16]	duplex melting temperature [3, 17]	duplex melting temperature [3, 18]	duplex melting temperature [3, 19]	duplex melting temperature [3, 20]	duplex melting temperature [3, 21]	duplex melting temperature [3, 22]	duplex melting temperature [3, 23]	duplex melting temperature [3, 24]	duplex formation enthalpy ΔH [4, 5]	duplex formation enthalpy ΔH [4, 6]	duplex formation enthalpy ΔH [4, 7]	duplex melting temperature [3, 25]	duplex melting temperature [3, 26]	duplex melting temperature [3, 27]	duplex melting temperature [3, 28]
CGCGCGAGTATTTATAACCT	-372 ± 29 cal/mol/K	-290 ± 12 cal/mol/K	-234 ± 19 cal/mol/K	-18.2 ± 0.69 kcal/mol	-13.7 ± 0.2 kcal/mol	-10.5 ± 0.12 kcal/mol	71.21 ± 0.27 °C	52.47 ± 0.24 °C	72.26 ± 0.47 °C	64.1 ± 0.75 °C	55.09 ± 0.4 °C	73.44 ± 0.43 °C	65.57 ± 0.61 °C	56.95 ± 0.38 °C	74.53 ± 0.18 °C	66.38 ± 0.52 °C	57.68 ± 0.13 °C	75.09 ± 0.087 °C	67.07 ± 0.32 °C	58.33 ± 0.069 °C	75.71 ± 0.17 °C	67.9 ± 0.21 °C	68.39 ± 0.14 °C	-138 ± 10 kcal/mol	-107 ± 4 kcal/mol	-86 ± 6.3 kcal/mol	–	–	–	–
ACATGACTCATCTTAGCCGGCGAG	-336 ± 16 cal/mol/K	-356 ± 17 cal/mol/K	-311 ± 7.6 cal/mol/K	-19.9 ± 0.5 kcal/mol	-17.8 ± 0.41 kcal/mol	-14.53 ± 0.14 kcal/mol	77.5 ± 1.1 °C	63.8 ± 0.81 °C	79.47 ± 0.48 °C	72.33 ± 0.54 °C	65.78 ± 0.62 °C	80.58 ± 0.42 °C	73.6 ± 0.59 °C	67.03 ± 0.46 °C	81.54 ± 0.25 °C	74.24 ± 0.52 °C	68.06 ± 0.18 °C	82.18 ± 0.17 °C	75.03 ± 0.16 °C	68.59 ± 0.11 °C	82.95 ± 0.13 °C	75.79 ± 0.14 °C	76.42 ± 0.052 °C	-128 ± 5.6 kcal/mol	-133 ± 5.9 kcal/mol	-115 ± 2.6 kcal/mol	71.03 ± 0.65 °C	69.29 ± 0.1 °C	83.69 ± 0.2 °C	69.97 ± 0.13 °C
CGACATGTATGGCACAG	-198 ± 5.8 cal/mol/K	-224 ± 3.8 cal/mol/K	-214 ± 8.2 cal/mol/K	-13.17 ± 0.12 kcal/mol	-11.9 ± 0.052 kcal/mol	-9.881 ± 0.049 kcal/mol	64.55 ± 0.5 °C	50.2 ± 0.26 °C	67.76 ± 0.17 °C	60.82 ± 0.11 °C	53.07 ± 0.18 °C	69.89 ± 0.28 °C	62.71 ± 0.088 °C	55.02 ± 0.11 °C	70.97 ± 0.12 °C	63.78 ± 0.073 °C	56.02 ± 0.081 °C	71.86 ± 0.14 °C	64.547 ± 0.024 °C	56.75 ± 0.13 °C	73.04 ± 0.17 °C	65.56 ± 0.091 °C	66.343 ± 0.048 °C	-77.2 ± 2 kcal/mol	-84.2 ± 1.3 kcal/mol	-79.1 ± 2.7 kcal/mol	58.38 ± 0.3 °C	57.63 ± 0.092 °C	73.85 ± 0.16 °C	58.35 ± 0.083 °C
CCCAGGCCTCGGATTTA	-206 ± 6.1 cal/mol/K	-191 ± 3.5 cal/mol/K	-205 ± 6.3 cal/mol/K	-14.1 ± 0.15 kcal/mol	-12.37 ± 0.061 kcal/mol	-11.41 ± 0.078 kcal/mol	–	56.81 ± 0.12 °C	71.02 ± 0.086 °C	64.52 ± 0.19 °C	59.77 ± 0.087 °C	73.09 ± 0.13 °C	66.7 ± 0.3 °C	61.69 ± 0.093 °C	74.25 ± 0.19 °C	67.99 ± 0.22 °C	62.78 ± 0.14 °C	75.215 ± 0.05 °C	68.759 ± 0.049 °C	63.54 ± 0.15 °C	76.343 ± 0.055 °C	70.047 ± 0.069 °C	71.04 ± 0.25 °C	-80.8 ± 2.1 kcal/mol	-74.2 ± 1.2 kcal/mol	-77.5 ± 2.1 kcal/mol	61.72 ± 0.53 °C	64.73 ± 0.092 °C	77.12 ± 0.096 °C	65.39 ± 0.35 °C
TTTGGGTTAGTAAGAAGGCAGCAGTTGGGC	-517 ± 22 cal/mol/K	-439 ± 21 cal/mol/K	-377 ± 7.9 cal/mol/K	-26.6 ± 0.73 kcal/mol	-20.7 ± 0.54 kcal/mol	-15.88 ± 0.14 kcal/mol	80.77 ± 0.16 °C	64.9 ± 0.6 °C	81.98 ± 0.11 °C	74.54 ± 0.53 °C	66.58 ± 0.4 °C	82.782 ± 0.065 °C	75.49 ± 0.43 °C	67.7 ± 0.32 °C	83.39 ± 0.22 °C	76.34 ± 0.31 °C	68.34 ± 0.25 °C	83.787 ± 0.08 °C	76.74 ± 0.24 °C	68.92 ± 0.12 °C	84.24 ± 0.16 °C	77.38 ± 0.2 °C	77.939 ± 0.056 °C	-194 ± 7.9 kcal/mol	-163 ± 7.3 kcal/mol	-138 ± 2.7 kcal/mol	73.49 ± 0.58 °C	69.54 ± 0.097 °C	85 °C	70.01 ± 0.096 °C
CACAGCGACATGTATGG	-218 ± 7.4 cal/mol/K	-220 ± 4.1 cal/mol/K	-216 ± 10 cal/mol/K	-13.7 ± 0.16 kcal/mol	-12.06 ± 0.059 kcal/mol	-10.12 ± 0.071 kcal/mol	66.351 ± 0.017 °C	51.1 ± 0.65 °C	68.17 ± 0.38 °C	61.71 ± 0.23 °C	54.15 ± 0.059 °C	70.03 ± 0.34 °C	63.56 ± 0.32 °C	56.02 ± 0.1 °C	71.11 ± 0.17 °C	64.61 ± 0.28 °C	56.91 ± 0.12 °C	72.07 ± 0.21 °C	65.347 ± 0.065 °C	57.68 ± 0.091 °C	73.27 ± 0.14 °C	66.45 ± 0.11 °C	67.43 ± 0.1 °C	-84.1 ± 2.5 kcal/mol	-83.1 ± 1.4 kcal/mol	-80 ± 3.5 kcal/mol	59.17 ± 0.49 °C	58.539 ± 0.051 °C	74.18 ± 0.2 °C	59.3 ± 0.12 °C
CGGTGCTTTTGGTAGC	-204 ± 15 cal/mol/K	-200 ± 4.7 cal/mol/K	-184 ± 7.3 cal/mol/K	-13 ± 0.28 kcal/mol	-11.01 ± 0.054 kcal/mol	-9.497 ± 0.038 kcal/mol	64.53 ± 0.35 °C	48.49 ± 0.47 °C	66.24 ± 0.63 °C	57.98 ± 0.26 °C	51.59 ± 0.36 °C	68.2 ± 0.57 °C	60.12 ± 0.16 °C	53.89 ± 0.15 °C	69.42 ± 0.55 °C	61.35 ± 0.16 °C	55.11 ± 0.14 °C	70.49 ± 0.27 °C	62.11 ± 0.17 °C	55.86 ± 0.081 °C	71.77 ± 0.14 °C	63.256 ± 0.027 °C	64.025 ± 0.015 °C	-78.9 ± 5 kcal/mol	-75.7 ± 1.6 kcal/mol	-69.1 ± 2.4 kcal/mol	55.5 °C	56.93 ± 0.08 °C	72.89 ± 0.21 °C	57.7 ± 0.2 °C
AATGTCGAACAGCAATT	-192 ± 8 cal/mol/K	-195 ± 5.2 cal/mol/K	-169 ± 7 cal/mol/K	-12.5 ± 0.15 kcal/mol	-11.23 ± 0.064 kcal/mol	-9.264 ± 0.033 kcal/mol	63.06 ± 0.22 °C	47.17 ± 0.34 °C	65.17 ± 0.47 °C	59.08 ± 0.19 °C	50.7 ± 0.2 °C	67.17 ± 0.36 °C	61.32 ± 0.12 °C	53 ± 0.2 °C	68.45 ± 0.29 °C	62.61 ± 0.066 °C	54.22 ± 0.19 °C	69.46 ± 0.13 °C	63.46 ± 0.16 °C	54.99 ± 0.23 °C	70.74 ± 0.12 °C	64.55 ± 0.19 °C	65.45 ± 0.21 °C	-74.4 ± 2.7 kcal/mol	-74.3 ± 1.7 kcal/mol	-63.7 ± 2.3 kcal/mol	56.56 ± 0.11 °C	56.34 ± 0.18 °C	71.86 ± 0.12 °C	57.25 ± 0.45 °C
GCAGGAGCCGCGACCTG	-257 ± 15 cal/mol/K	-197 ± 5.2 cal/mol/K	-212 ± 5.6 cal/mol/K	-17.2 ± 0.47 kcal/mol	-13.98 ± 0.13 kcal/mol	-12.81 ± 0.099 kcal/mol	–	62.56 ± 0.17 °C	78.12 ± 0.35 °C	71.31 ± 0.39 °C	65.18 ± 0.082 °C	79.75 ± 0.071 °C	73.48 ± 0.49 °C	66.99 ± 0.15 °C	80.79 ± 0.2 °C	74.78 ± 0.33 °C	68.28 ± 0.17 °C	81.76 ± 0.16 °C	75.68 ± 0.15 °C	69.26 ± 0.061 °C	82.48 ± 0.27 °C	76.9 ± 0.33 °C	77.68 ± 0.29 °C	-100 ± 5.4 kcal/mol	-77.6 ± 1.8 kcal/mol	-81.2 ± 1.9 kcal/mol	68.45 ± 0.49 °C	70.16 ± 0.069 °C	83.26 ± 0.12 °C	71.01 ± 0.16 °C
